Among the data in article PMC9482650, “Quantitative fragmentomics allow affinity mapping of interactomes” (Nature Communications, 2022) are pKd values, retold here.

Some targets named below: DLG4_2, P78352; FRMPD2_1, Q68DX3; IL16_1, Q14005; Inadl_3, Q8NI35; LAP2, Q96RT1; LIMK2, P53671; LNX1_3, Q8TBB1; NHERF4_2, Q86UT5; NHERF4_4, Q86UT5.
What all share (experiment): holdup assay
What all share (parameters): key: below the threshold = too weak to quantify, mostly under pKd 3.1 to 4

In another assay the target is T1, APBA1_2, Q02410.
T1 sequence (Q02410 742-832, limits assumed, looked up): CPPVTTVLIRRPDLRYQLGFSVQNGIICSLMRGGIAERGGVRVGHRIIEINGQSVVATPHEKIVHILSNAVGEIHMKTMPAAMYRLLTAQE

Another assay concerns the target T2, APBA2_2, Q99767.
T2 sequence (Q99767 654-744, limits assumed, looked up): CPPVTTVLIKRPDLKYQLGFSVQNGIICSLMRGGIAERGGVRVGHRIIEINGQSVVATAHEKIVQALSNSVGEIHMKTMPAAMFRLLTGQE

The target of a further assay is T3, CARD11, Q9BXL7.
T3 sequence (Q9BXL7 662-765, limits assumed, looked up): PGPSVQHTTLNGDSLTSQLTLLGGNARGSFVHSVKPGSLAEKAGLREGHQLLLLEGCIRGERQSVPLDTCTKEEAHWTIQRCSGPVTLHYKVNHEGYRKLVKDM

For another assay, the target named is T4, DFNB31_2, Q9P202.
T4 sequence (Q9P202 274-371, limits assumed, looked up): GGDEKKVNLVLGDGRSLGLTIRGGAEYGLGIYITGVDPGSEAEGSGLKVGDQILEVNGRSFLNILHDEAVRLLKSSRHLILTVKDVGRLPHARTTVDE

Another assay has as its target T5, FRMPD1, Q5SYB0.
T5 sequence (Q5SYB0 52-145, limits assumed, looked up): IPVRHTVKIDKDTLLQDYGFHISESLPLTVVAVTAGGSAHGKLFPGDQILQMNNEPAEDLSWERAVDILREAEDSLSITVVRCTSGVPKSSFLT

A further assay addresses T6, LNX2_3, Q8N448.
T6 sequence (Q8N448 463-564, limits assumed, looked up): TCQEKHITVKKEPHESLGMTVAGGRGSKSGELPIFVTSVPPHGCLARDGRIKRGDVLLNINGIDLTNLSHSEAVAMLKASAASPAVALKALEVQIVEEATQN

The target of a further assay is T7, MPDZ_10, O75970.
T7 sequence (O75970 1624-1722, limits assumed, looked up): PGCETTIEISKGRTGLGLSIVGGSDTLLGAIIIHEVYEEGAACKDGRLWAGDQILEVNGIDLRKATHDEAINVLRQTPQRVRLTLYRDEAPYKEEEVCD

Another assay has as its target T8, MPP6, Q9NZW5.
T8 sequence (Q9NZW5 125-219, limits assumed, looked up): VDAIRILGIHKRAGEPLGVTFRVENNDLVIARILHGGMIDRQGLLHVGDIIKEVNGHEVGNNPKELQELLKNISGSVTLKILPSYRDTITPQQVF

Another assay has as its target T9, MPP7, Q5T2T1.
T9 sequence (Q5T2T1 134-230, limits assumed, looked up): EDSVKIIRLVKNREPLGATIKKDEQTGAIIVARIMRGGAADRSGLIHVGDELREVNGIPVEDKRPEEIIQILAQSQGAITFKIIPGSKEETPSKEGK

For the next assay, the target named is T10, NHERF3_3, Q5T2W1.
T10 sequence (Q5T2W1 238-333, limits assumed, looked up): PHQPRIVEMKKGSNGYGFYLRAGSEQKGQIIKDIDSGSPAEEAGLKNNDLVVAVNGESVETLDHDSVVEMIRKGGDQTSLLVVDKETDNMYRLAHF

Another assay concerns the target T11, NHERF3_4, Q5T2W1.
T11 sequence (Q5T2W1 373-468, limits assumed, looked up): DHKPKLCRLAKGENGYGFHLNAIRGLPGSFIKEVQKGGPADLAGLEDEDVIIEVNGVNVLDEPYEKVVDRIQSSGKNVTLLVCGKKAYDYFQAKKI

The next assay concerns the target T12, PDZD2_2, O15018.
T12 sequence (O15018 329-429, limits assumed, looked up): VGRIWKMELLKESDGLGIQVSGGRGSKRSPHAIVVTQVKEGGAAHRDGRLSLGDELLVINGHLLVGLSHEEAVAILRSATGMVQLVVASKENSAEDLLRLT

The target of another assay is T13, SHANK1, Q9Y566.
T13 sequence (Q9Y566 658-767, limits assumed, looked up): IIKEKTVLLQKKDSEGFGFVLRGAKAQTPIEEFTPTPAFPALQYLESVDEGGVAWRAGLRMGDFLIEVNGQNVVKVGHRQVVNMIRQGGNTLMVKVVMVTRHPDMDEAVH

A further assay addresses T14, TX1BP3, O14907.
T14 sequence (O14907 10-122, limits assumed, looked up): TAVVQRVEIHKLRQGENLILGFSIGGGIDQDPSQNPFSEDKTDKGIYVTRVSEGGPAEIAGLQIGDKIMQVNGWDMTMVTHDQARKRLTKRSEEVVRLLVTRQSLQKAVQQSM

Where [1] appears, read: plain residues with an end cap or a label only (N-terminal biotin on a linker: ado-ado).
The mark [2] stands for this setting: plain residues with an end cap or a label only (N-terminal biotin on a linker: ttds).

FRMPD2_1, Q68DX3, sequence (Q68DX3 770-861): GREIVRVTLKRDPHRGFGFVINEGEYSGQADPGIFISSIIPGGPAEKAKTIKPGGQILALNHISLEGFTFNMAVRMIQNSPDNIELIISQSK
NHERF4_2, Q86UT5, sequence (Q86UT5 220-308): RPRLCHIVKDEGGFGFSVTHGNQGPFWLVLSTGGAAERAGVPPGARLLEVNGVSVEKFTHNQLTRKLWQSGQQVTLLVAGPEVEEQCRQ
DLG4_2, P78352, sequence (P78352 155-259): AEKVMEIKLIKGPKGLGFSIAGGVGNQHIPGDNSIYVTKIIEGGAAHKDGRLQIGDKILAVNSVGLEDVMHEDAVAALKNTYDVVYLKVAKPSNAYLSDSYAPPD
NHERF4_4, Q86UT5, sequence (Q86UT5 464-550): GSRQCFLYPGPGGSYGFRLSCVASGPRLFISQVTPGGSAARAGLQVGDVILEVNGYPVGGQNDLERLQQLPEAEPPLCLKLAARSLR
LAP2, Q96RT1, sequence (Q96RT1 other isoform, or with tags, fused parts or gaps): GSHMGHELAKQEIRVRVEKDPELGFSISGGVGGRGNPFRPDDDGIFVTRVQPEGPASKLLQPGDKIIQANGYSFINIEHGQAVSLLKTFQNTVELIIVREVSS
LNX1_3, Q8TBB1, sequence (Q8TBB1 500-596): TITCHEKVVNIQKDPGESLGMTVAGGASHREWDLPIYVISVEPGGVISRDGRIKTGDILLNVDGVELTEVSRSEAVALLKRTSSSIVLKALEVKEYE
IL16_1, Q14005, sequence (Q14005 210-306): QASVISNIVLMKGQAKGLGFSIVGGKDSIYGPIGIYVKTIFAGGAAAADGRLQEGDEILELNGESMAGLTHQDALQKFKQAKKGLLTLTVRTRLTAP
Inadl_3, Q8NI35, sequence (Q8NI35 359-469): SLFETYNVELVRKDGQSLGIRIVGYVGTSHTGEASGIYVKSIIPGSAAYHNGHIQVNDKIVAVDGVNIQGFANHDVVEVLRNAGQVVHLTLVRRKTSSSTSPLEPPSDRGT
LIMK2, P53671, sequence (P53671 143-248): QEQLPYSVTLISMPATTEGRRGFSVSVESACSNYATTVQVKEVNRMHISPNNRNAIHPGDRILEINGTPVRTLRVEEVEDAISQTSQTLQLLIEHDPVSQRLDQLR

On to EDLTKNHDEL [RCN1, Q15293], for which the pKd with APBA1_2, Q02410 (setting [1]) is 3.66; with APBA2_2, Q99767 (setting [1]), “below the threshold”; in the assay with CARD11, Q9BXL7 (setting [1]) it was “below the threshold”; with DFNB31_2, Q9P202 (setting [1]), “below the threshold”; with DLG4_2, P78352 (setting [1]), 3.62; with FRMPD1, Q5SYB0 (setting [1]) it was “below the threshold”. The pKd entry in the assay with FRMPD2_1, Q68DX3 (setting [1]) was “below the threshold”; in the assay with IL16_1, Q14005 (setting [1]), “below the threshold”; with Inadl_3, Q8NI35 (setting [1]), “below the threshold”; with LAP2, Q96RT1 (setting [1]) it was “below the threshold”; in the assay with LIMK2, P53671 (setting [1]), “below the threshold”; in the assay with LNX1_3, Q8TBB1 (setting [1]) it was 3.54. Further, the pKd in the assay with LNX2_3, Q8N448 (setting [1]) is 3.51; with MPDZ_10, O75970 (setting [1]), “below the threshold”; with MPP6, Q9NZW5 (setting [1]), “below the threshold”; with MPP7, Q5T2T1 (setting [1]), “below the threshold”; with NHERF3_3, Q5T2W1 (setting [1]), “below the threshold”; with NHERF3_4, Q5T2W1 (setting [1]), “below the threshold”. Besides, the pKd result with NHERF4_2, Q86UT5 (setting [1]) is “below the threshold”; in the assay with NHERF4_4, Q86UT5 (setting [1]), 4.01; in the assay with PDZD2_2, O15018 (setting [1]) it was 3.62; in the assay with SHANK1, Q9Y566 (setting [1]), “below the threshold”; in the assay with TX1BP3, O14907 (setting [1]), “below the threshold”.

In the case of TEEEVQDTRL [CFTR, P13569], the pKd result is given as “below the threshold” with APBA1_2, Q02410 (setting [2]); “below the threshold” with APBA2_2, Q99767 (setting [2]); “below the threshold” in the assay with CARD11, Q9BXL7 (setting [2]); “below the threshold” with DFNB31_2, Q9P202 (setting [2]); “below the threshold” in the assay with DLG4_2, P78352 (setting [2]); “below the threshold” with FRMPD1, Q5SYB0 (setting [2]). Moreover, the pKd result is “below the threshold” in the assay with FRMPD2_1, Q68DX3 (setting [2]); “below the threshold” with IL16_1, Q14005 (setting [2]); “below the threshold” in the assay with Inadl_3, Q8NI35 (setting [2]); “below the threshold” in the assay with LAP2, Q96RT1 (setting [2]); “below the threshold” with LIMK2, P53671 (setting [2]); “below the threshold” with LNX1_3, Q8TBB1 (setting [2]). For the same molecule, the pKd entry is “below the threshold” with LNX2_3, Q8N448 (setting [2]); “below the threshold” with MPDZ_10, O75970 (setting [2]); “below the threshold” with MPP6, Q9NZW5 (setting [2]); “below the threshold” in the assay with MPP7, Q5T2T1 (setting [2]); 3.79 with NHERF3_3, Q5T2W1 (setting [2]); 4.08 with NHERF3_4, Q5T2W1 (setting [2]). In addition, the pKd result with NHERF4_2, Q86UT5 (setting [2]) was “below the threshold”; with NHERF4_4, Q86UT5 (setting [2]) it was “below the threshold”; in the assay with PDZD2_2, O15018 (setting [2]), “below the threshold”; with SHANK1, Q9Y566 (setting [2]) it was 5.07; in the assay with TX1BP3, O14907 (setting [2]), “below the threshold”.

Turning to NYWPGKETQL [SLCO1C1, Q9NYB5], the pKd was 4.08 with APBA1_2, Q02410 (setting [2]); “below the threshold” with APBA2_2, Q99767 (setting [2]); “below the threshold” in the assay with CARD11, Q9BXL7 (setting [2]); 4.36 in the assay with DFNB31_2, Q9P202 (setting [2]); 4.78 in the assay with DLG4_2, P78352 (setting [2]); “below the threshold” with FRMPD1, Q5SYB0 (setting [2]). The pKd with FRMPD2_1, Q68DX3 (setting [2]) was 4.05; in the assay with IL16_1, Q14005 (setting [2]) it was “below the threshold”; in the assay with Inadl_3, Q8NI35 (setting [2]), “below the threshold”; with LAP2, Q96RT1 (setting [2]) it was 3.92; with LIMK2, P53671 (setting [2]), “below the threshold”; in the assay with LNX1_3, Q8TBB1 (setting [2]), “below the threshold”. Further, the pKd result is “below the threshold” with LNX2_3, Q8N448 (setting [2]); “below the threshold” in the assay with MPDZ_10, O75970 (setting [2]); 3.74 with MPP6, Q9NZW5 (setting [2]); “below the threshold” in the assay with MPP7, Q5T2T1 (setting [2]); “below the threshold” in the assay with NHERF3_3, Q5T2W1 (setting [2]); “below the threshold” with NHERF3_4, Q5T2W1 (setting [2]). In addition, the pKd result in the assay with NHERF4_2, Q86UT5 (setting [2]) is “below the threshold”; in the assay with NHERF4_4, Q86UT5 (setting [2]) it was “below the threshold”; in the assay with PDZD2_2, O15018 (setting [2]), “below the threshold”; with SHANK1, Q9Y566 (setting [2]) it was 3.81; in the assay with TX1BP3, O14907 (setting [2]), 5.47.

In the case of LDSQIQETSI [MAP4, P27816], the pKd result in the assay with APBA1_2, Q02410 (setting [2]) was “below the threshold”; with APBA2_2, Q99767 (setting [2]), “below the threshold”; with CARD11, Q9BXL7 (setting [2]), “below the threshold”; in the assay with DFNB31_2, Q9P202 (setting [2]), “below the threshold”; with DLG4_2, P78352 (setting [2]), 4.18; in the assay with FRMPD1, Q5SYB0 (setting [2]), “below the threshold”. The pKd result is “below the threshold” in the assay with FRMPD2_1, Q68DX3 (setting [2]); 3.49 with IL16_1, Q14005 (setting [2]); “below the threshold” with Inadl_3, Q8NI35 (setting [2]); 3.86 with LAP2, Q96RT1 (setting [2]); “below the threshold” with LIMK2, P53671 (setting [2]); “below the threshold” with LNX1_3, Q8TBB1 (setting [2]). Further, the pKd result with LNX2_3, Q8N448 (setting [2]) is on record as “below the threshold”; with MPDZ_10, O75970 (setting [2]), “below the threshold”; with MPP6, Q9NZW5 (setting [2]), “below the threshold”; with MPP7, Q5T2T1 (setting [2]), “below the threshold”; with NHERF3_3, Q5T2W1 (setting [2]), “below the threshold”; with NHERF3_4, Q5T2W1 (setting [2]), “below the threshold”. Further, the pKd result with NHERF4_2, Q86UT5 (setting [2]) is “below the threshold”; in the assay with NHERF4_4, Q86UT5 (setting [2]), “below the threshold”; with PDZD2_2, O15018 (setting [2]) it was 4.36; with SHANK1, Q9Y566 (setting [2]), 4.42; in the assay with TX1BP3, O14907 (setting [2]), 3.96.

The term pKd denotes the negative decadic logarithm of the Kd, by convention in mol/L.
